PMC9457990, “Evolution of Interferon-Gamma Aptamer with Good Affinity and Analytical Utility by a Rational In Silico Base Mutagenesis Post-SELEX Strategy”

B1: B1-4 (ssDNA)
DNA: CCGCCCAAATCCCTAAGAGAAGACTGTAATGACATCAAACCAGACACACTACACACGCA
B2: M5-5 (ssDNA)
DNA: CCGCCCAAATCCCGAAGGGAAGAGTGTAATGACGTCAAACCAGACACATTACACACGCA
B3: M1-8 (ssDNA)
DNA: CCGCCCAAATCCCTAAGGGAAGACTGTAATGACATCAAACCAGACACACTACACACGCA
B4: M2-6 (ssDNA)
DNA: CCGCCCAAATCCCTAAGGGAAGACTGTAATGACATCAAACCAGACACATTACACACGCA
B5: M3-6 (ssDNA)
DNA: CCGCCCAAATCCCTAAGTGAAGACTGGAATGACATCAAACCAGTCACACTACACACGCA
B6: M4-10 (ssDNA)
DNA: CCGCCCAAATCCCTAAGTGAAGACTGGATTGACATCAAACCAGTCACACTACACACGCA

The binders below were run against interferon-gamma (IFN-γ) (Homo sapiens, UniProt P01579 24-161) (assay: BLI; PBS pH 7.4, 25 °C; BLI on SA sensors with 500 nM biotinylated aptamer loaded, IFN-γ 125-2000 nM; fluorescence assay in PBS, 250 nM M5-5, MB 1:3, 30 min at 25 °C). Conditions: protein: commercial; chain copies: 2; label: biotin (BLI).
Sequence of interferon-gamma (IFN-γ) (P01579 24-161): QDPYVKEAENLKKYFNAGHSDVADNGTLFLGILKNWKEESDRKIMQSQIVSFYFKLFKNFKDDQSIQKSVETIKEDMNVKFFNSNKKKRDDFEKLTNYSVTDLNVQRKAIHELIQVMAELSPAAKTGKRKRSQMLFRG
In the case of B1, the Kd is reported as 914 nM.
B2 gave a Kd of 106 nM.
B3 was tested, and the Kd was 440 nM.
In the case of B4, the Kd is reported as 482 nM.
Binder B5 has a Kd of 267 nM.
B6 gave a Kd of 277 nM.
